The values that follow come from the supplement of paper PMC9112550, “Optimization of the antimicrobial peptide Bac7 by deep mutational scanning” (BMC Biology, 2022).
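Also: peptides expressed intracellularly from a pBAD plasmid library in pooled LB shake-flask culture, induced with 0.3% L-arabinose, DNA abundance read by NGS, three biological replicates, DESeq2 with apeglm shrinkage.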

The subject of this data set is Escherichia coli TOP10. Nature of the data set: shrunken log2 fold change of peptide-encoding DNA abundance (4.5 h post-induction vs induction); higher = less antimicrobial activity (less host growth inhibition). The following applies: time post-induction: 4.5 h; library: site-saturation at positions 5, 18, 19, 20.
RRIRKRPPRLPRPRPRPWGWPRP: the “shrunken log2 fold change” value amounted to 0.691. RRIRKRPPRLPRPRPRPTKGPRP: the “shrunken log2 fold change” value was determined as 0.0795.

Take RRIRPRPPRLPRPRPRPEPLPRP: the “shrunken log2 fold change” value was found to be 0.0833. In the case of RRIRTRPPRLPRPRPRPHIRPRP, the “shrunken log2 fold change” value was -0.271. Under RRIRWRPPRLPRPRPRPELGPRP stands -0.0384. Under RRIRARPPRLPRPRPRPCQLPRP stands -0.0907; under RRIRQRPPRLPRPRPRPADRPRP, 0.0738; under RRIRLRPPRLPRPRPRPAREPRP, 0.678. As for RRIRVRPPRLPRPRPRPSAGPRP, the “shrunken log2 fold change” value was determined as 0.295.

Consider RRIRIRPPRLPRPRPRPREKPRP, for which the “shrunken log2 fold change” value came to 0.111. As for RRIRLRPPRLPRPRPRPKFMPRP, the “shrunken log2 fold change” value is 0.149.

For the sequence RRIRFRPPRLPRPRPRPDFTPRP, the “shrunken log2 fold change” value stood at 0.138. For RRIRCRPPRLPRPRPRPNCCPRP, the “shrunken log2 fold change” value is 0.188. As to RRIRARPPRLPRPRPRPFTMPRP, the “shrunken log2 fold change” value was -0.378. With RRIRGRPPRLPRPRPRPDYDPRP the figure was 0.157.

Regarding RRIRKRPPRLPRPRPRPCHMPRP, the “shrunken log2 fold change” value is -0.538. RRIRHRPPRLPRPRPRPRHDPRP: the “shrunken log2 fold change” value is -0.0713. Turning to RRIRKRPPRLPRPRPRPIWSPRP, the “shrunken log2 fold change” value is -0.0718. Under RRIRSRPPRLPRPRPRPLKEPRP stands 0.176; under RRIRYRPPRLPRPRPRPEMCPRP, -0.238. RRIRPRPPRLPRPRPRPAKVPRP: the “shrunken log2 fold change” value turned out to be 0.045.

On to RRIRVRPPRLPRPRPRPQYQPRP, for which the “shrunken log2 fold change” value is -0.302. For the sequence RRIRKRPPRLPRPRPRPSEPPRP, the “shrunken log2 fold change” value is 0.249. With RRIRMRPPRLPRPRPRPRSEPRP the figure was 0.81. Take RRIRYRPPRLPRPRPRPHTNPRP: the “shrunken log2 fold change” value is -0.661. On to RRIRRRPPRLPRPRPRPMHYPRP, for which the “shrunken log2 fold change” value turned out to be 0.117. Under RRIRERPPRLPRPRPRPMFRPRP stands -0.737; under RRIRLRPPRLPRPRPRPEDHPRP, -0.0495. Under RRIRQRPPRLPRPRPRPKFCPRP stands -0.0186.

As to RRIRQRPPRLPRPRPRPLFFPRP, the “shrunken log2 fold change” value is -0.00141. On to RRIRSRPPRLPRPRPRPHELPRP, for which the “shrunken log2 fold change” value is -0.101. As to RRIRDRPPRLPRPRPRPCVPPRP, the “shrunken log2 fold change” value was -0.135. With RRIRARPPRLPRPRPRPHHEPRP the figure was -0.119. Regarding RRIRIRPPRLPRPRPRPRIFPRP, the “shrunken log2 fold change” value is -1.13. On to RRIRKRPPRLPRPRPRPGTCPRP, for which the “shrunken log2 fold change” value stood at 0.258. With RRIRLRPPRLPRPRPRPCCCPRP the figure was -0.117; with RRIRFRPPRLPRPRPRPHHDPRP, -0.379. Consider RRIRSRPPRLPRPRPRPCSAPRP, for which the “shrunken log2 fold change” value is -0.0813. As for RRIRRRPPRLPRPRPRPADTPRP, the “shrunken log2 fold change” value was found to be 0.423. Under RRIRMRPPRLPRPRPRPCIYPRP stands 0.0933. Take RRIRSRPPRLPRPRPRPNQLPRP: the “shrunken log2 fold change” value was -0.218. Regarding RRIRCRPPRLPRPRPRPPPGPRP, the “shrunken log2 fold change” value was determined as 1.47.

As to RRIRARPPRLPRPRPRPMQSPRP, the “shrunken log2 fold change” value is 0.43. RRIRTRPPRLPRPRPRPKCLPRP: the “shrunken log2 fold change” value was -0.0528. With RRIRQRPPRLPRPRPRPKYDPRP the figure was -0.165; with RRIRHRPPRLPRPRPRPHRLPRP, -0.0453. Under RRIRARPPRLPRPRPRPWVNPRP stands -0.246; under RRIRQRPPRLPRPRPRPPYNPRP, -0.154. Regarding RRIRRRPPRLPRPRPRPIYIPRP, the “shrunken log2 fold change” value is -0.184.

On to RRIRRRPPRLPRPRPRPFYRPRP, for which the “shrunken log2 fold change” value is -0.0117. Under RRIRLRPPRLPRPRPRPQRMPRP stands -0.124; under RRIRPRPPRLPRPRPRPLKLPRP, -0.267.

For the sequence RRIRLRPPRLPRPRPRPKHGPRP, the “shrunken log2 fold change” value was -0.0363.

RRIRDRPPRLPRPRPRPCKLPRP: the “shrunken log2 fold change” value is -0.0175. Regarding RRIRTRPPRLPRPRPRPIWYPRP, the “shrunken log2 fold change” value is -0.601. Under RRIRHRPPRLPRPRPRPMWEPRP stands -0.0441; under RRIRPRPPRLPRPRPRPVGFPRP, 0.37; under RRIRWRPPRLPRPRPRPAVAPRP, 0.544. Under RRIRNRPPRLPRPRPRPQDQPRP stands -0.222. On to RRIRNRPPRLPRPRPRPETAPRP, for which the “shrunken log2 fold change” value worked out at 0.536.

With RRIRCRPPRLPRPRPRPTNAPRP, the “shrunken log2 fold change” value was found to be 0.307.

With RRIRDRPPRLPRPRPRPRWGPRP, the “shrunken log2 fold change” value came out at 0.471. Under RRIRCRPPRLPRPRPRPPGAPRP stands 0.678. Under RRIRPRPPRLPRPRPRPKTAPRP stands -0.109; under RRIRWRPPRLPRPRPRPNPKPRP, 0.0369. Turning to RRIRHRPPRLPRPRPRPSMYPRP, the “shrunken log2 fold change” value was -0.0507. RRIRCRPPRLPRPRPRPYTFPRP: the “shrunken log2 fold change” value is -0.883. Consider RRIRMRPPRLPRPRPRPVVSPRP, for which the “shrunken log2 fold change” value was found to be 0.095.

For RRIRLRPPRLPRPRPRPENVPRP, the “shrunken log2 fold change” value was -0.0483. RRIRDRPPRLPRPRPRPYHIPRP: the “shrunken log2 fold change” value was -0.107. On to RRIRPRPPRLPRPRPRPIKEPRP, for which the “shrunken log2 fold change” value was -0.00478. As for RRIRRRPPRLPRPRPRPPCQPRP, the “shrunken log2 fold change” value was 0.767.

As for RRIRFRPPRLPRPRPRPDNEPRP, the “shrunken log2 fold change” value was -0.0688. As to RRIRQRPPRLPRPRPRPQAQPRP, the “shrunken log2 fold change” value came to 0.0471. With RRIRMRPPRLPRPRPRPISFPRP the figure was -0.496; with RRIRQRPPRLPRPRPRPCLDPRP, -0.0986; with RRIRCRPPRLPRPRPRPWFVPRP, -0.629. As to RRIRVRPPRLPRPRPRPDTCPRP, the “shrunken log2 fold change” value is -0.135. Consider RRIRYRPPRLPRPRPRPTECPRP, for which the “shrunken log2 fold change” value was -0.0134. As to RRIRFRPPRLPRPRPRPAWAPRP, the “shrunken log2 fold change” value was found to be 0.953.

On to RRIRARPPRLPRPRPRPHVFPRP, for which the “shrunken log2 fold change” value is 0.0326. Under RRIRYRPPRLPRPRPRPVIDPRP stands -0.942; under RRIRERPPRLPRPRPRPDGTPRP, 0.0123. Under RRIRNRPPRLPRPRPRPRTIPRP stands -0.221; under RRIRFRPPRLPRPRPRPNKEPRP, 0.0307; under RRIRHRPPRLPRPRPRPPNEPRP, 0.159. For the sequence RRIRTRPPRLPRPRPRPNIGPRP, the “shrunken log2 fold change” value was -0.0888.

Consider RRIRYRPPRLPRPRPRPHKDPRP, for which the “shrunken log2 fold change” value was -0.428. For the sequence RRIRKRPPRLPRPRPRPDQCPRP, the “shrunken log2 fold change” value was found to be 0.0219. With RRIRRRPPRLPRPRPRPGVPPRP the figure was 0.264. With RRIRDRPPRLPRPRPRPMKSPRP the figure was 0.0815; with RRIRQRPPRLPRPRPRPSVQPRP, -0.0622. As for RRIRKRPPRLPRPRPRPQCFPRP, the “shrunken log2 fold change” value is -0.0263.

As to RRIRMRPPRLPRPRPRPESWPRP, the “shrunken log2 fold change” value stood at 1.52. Take RRIRPRPPRLPRPRPRPRWLPRP: the “shrunken log2 fold change” value worked out at 0.299. Under RRIRTRPPRLPRPRPRPQWPPRP stands 0.0505; under RRIRPRPPRLPRPRPRPKRDPRP, 0.0476. Turning to RRIRFRPPRLPRPRPRPWMEPRP, the “shrunken log2 fold change” value was -0.706. For the sequence RRIRMRPPRLPRPRPRPFPTPRP, the “shrunken log2 fold change” value worked out at 0.153. Under RRIRSRPPRLPRPRPRPRDYPRP stands -0.341; under RRIRWRPPRLPRPRPRPGGPPRP, 0.367. Take RRIRLRPPRLPRPRPRPILGPRP: the “shrunken log2 fold change” value is -0.0186. With RRIRQRPPRLPRPRPRPCTQPRP the figure was -0.0306; with RRIRRRPPRLPRPRPRPDTHPRP, -0.254. With RRIRPRPPRLPRPRPRPPKVPRP the figure was 0.122; with RRIRHRPPRLPRPRPRPDHGPRP, -0.115; with RRIRGRPPRLPRPRPRPEKVPRP, 0.417. Under RRIRARPPRLPRPRPRPCNSPRP stands -0.0983; under RRIRSRPPRLPRPRPRPRQIPRP, -0.066.

As for RRIRKRPPRLPRPRPRPNQTPRP, the “shrunken log2 fold change” value amounted to 0.00514. As for RRIRQRPPRLPRPRPRPVFEPRP, the “shrunken log2 fold change” value stood at 0.0624. Under RRIRFRPPRLPRPRPRPNWKPRP stands 0.0201; under RRIRGRPPRLPRPRPRPSDVPRP, 0.0304; under RRIRSRPPRLPRPRPRPFLMPRP, 3.07. With RRIRTRPPRLPRPRPRPELLPRP the figure was 0.39; with RRIRIRPPRLPRPRPRPTGMPRP, -0.161; with RRIRSRPPRLPRPRPRPIFTPRP, -0.275. With RRIRERPPRLPRPRPRPRGDPRP the figure was 0.0639. As to RRIRIRPPRLPRPRPRPWWCPRP, the “shrunken log2 fold change” value was -0.196. Under RRIRARPPRLPRPRPRPELDPRP stands 1.78. Under RRIRNRPPRLPRPRPRPKYYPRP stands -0.887. For the sequence RRIRYRPPRLPRPRPRPWHIPRP, the “shrunken log2 fold change” value is -0.103. Under RRIRPRPPRLPRPRPRPPVYPRP stands 0.162. On to RRIRHRPPRLPRPRPRPDPMPRP, for which the “shrunken log2 fold change” value stood at 0.0718. With RRIRVRPPRLPRPRPRPYQKPRP, the “shrunken log2 fold change” value was -0.0384.
